Experimental data taken from PMC4816394.

Legend:
[1] = target: human triosephosphate isomerase K13M, catalytically inactive (hTPI^Δcat) (human); test: crystal structure; sitting drops, 28-34% PEG2000 MME, 50 mM KBr; space group P212121, a dimer in the asymmetric unit; 1.7 Å
[2] = target: human triosephosphate isomerase M82T (hTPI^M82T) (human); test: SEC; purified TPI diluted to 15 uM in mobile phase, 100 ul injected, elution monitored at 280 nm; peak areas integrated for the relative monomer and dimer populations; dimer to monomers

stoichiometry N [1] | percent dimer (dimer:monomer ratio of peak areas) [2] [%] | Substance
2 |  | human triosephosphate isomerase K13M, catalytically inactive (hTPI^Δcat) (enzyme)
 | 5 | human triosephosphate isomerase M82T (hTPI^M82T) (enzyme)
